Article PMC7396438
Values joined by “and” are separate entries in the source; they are usually repeats but may differ in a detail not shown here. Equal values may be shown once.

How the values were obtained:
Test in all cases: cross-linking; in vivo photo-cross-linking in BamA mutant strains (chromosomal bamA replaced; pBpa at 64, at 132, or at both); blot with antibodies against SurA, bands quantified with ImageJ against nonspecific bands as internal control; repeated twice
BamA-D132pBpa (E. coli) = BamA-D132pBpa (E. coli) (UniProt P0A940)
[1] = molecular target: BamA-R64&D132pBpa (E. coli) (UniProt P0A940)
BamA-R64pBpa (E. coli) = BamA-R64pBpa (E. coli) (UniProt P0A940)

SurA, sequence (P0ABZ6 21-428): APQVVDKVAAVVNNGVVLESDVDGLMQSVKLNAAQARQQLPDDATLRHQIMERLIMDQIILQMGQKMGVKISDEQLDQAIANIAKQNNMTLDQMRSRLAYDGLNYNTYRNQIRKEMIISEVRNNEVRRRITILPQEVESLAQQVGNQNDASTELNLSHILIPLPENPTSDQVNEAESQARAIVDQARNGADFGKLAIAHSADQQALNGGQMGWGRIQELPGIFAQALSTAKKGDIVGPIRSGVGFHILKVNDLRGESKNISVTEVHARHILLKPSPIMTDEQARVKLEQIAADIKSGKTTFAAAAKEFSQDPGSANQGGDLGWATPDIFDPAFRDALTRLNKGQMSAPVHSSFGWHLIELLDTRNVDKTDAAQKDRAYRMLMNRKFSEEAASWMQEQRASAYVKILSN

amount of cross-linked product (ImageJ, against nonspecific bands) (BamA-D132pBpa (E. coli)): 2.12 | amount of cross-linked product (ImageJ, against nonspecific bands) [1]: 1 and 1.02 | stoichiometry N [1]: 1 | sum of the amounts of the two cross-linked products (ImageJ) [1]: 2.02 | amount of cross-linked product (ImageJ, against nonspecific bands) (BamA-R64pBpa (E. coli)): 1.97
Substance: SurA (from UniProt P0ABZ6 21-428) (natural protein)
